*1 amine or outer side, *2 acyl side, *3 side chain or, on linkers, in order; H or OH if unused. Bridges are numbered along the chain shown (N, C = ends). Primed or numbered codes have the meaning given here. Where no end group is shown, it is not given here. [ ]: non-standard residue; d: D form. TATA = O=C(CC[*:1])N1CN(C(=O)CC[*:2])CN(C(=O)CC[*:3])C1; 1Nal = N[C@@H](Cc1cccc2ccccc12)C(=O)O; Glutaryl = O=C(CCCC(=O)[*:2])[*:1]; K(Fl) = lysine bearing fluorescein; Hyp = O=C(O)[C@@H]1C[C@@H](O)CN1; hArg = N=C(N)NCCCC[C@H](N)C(=O)O; Cit = NC(=O)NCCC[C@H](N)C(=O)O; MMAE = monomethyl auristatin E; PABC′ = p-aminobenzylcarbamate; βAla = NCCC(=O)O; Sar = CNCC(=O)O
Key:
[1] = target: Nectin-4 on the surface of tumour cell lines (UniProt Q96NY8); test: flow cytometry, PE isotype control on HT-29 cells
[2] = target: Nectin-4 on the surface of tumour cell lines (UniProt Q96NY8); test: flow cytometry, PE isotype control on A549 cells
[3] = target: Nectin-4 on the surface of tumour cell lines (UniProt Q96NY8); test: flow cytometry, PE isotype control on HT1080 cells
[4] = target: Nectin-4 on the surface of tumour cell lines (UniProt Q96NY8); test: flow cytometry, PE isotype control on MDA-MB-468 cells
[5] = target: Nectin-4 on the surface of tumour cell lines (UniProt Q96NY8); test: flow cytometry, PE isotype control on NCI-H526 cells
[6] = target: Nectin-4 on the surface of tumour cell lines (UniProt Q96NY8); test: flow cytometry, PE isotype control on Panc02.13 cells
[7] = target: Nectin-4 on the surface of tumour cell lines (UniProt Q96NY8); test: flow cytometry, PE isotype control on MDA-MB-468 cells; remark: listed apart in the source
[8] = target: Nectin-4 on the surface of tumour cell lines (UniProt Q96NY8); test: flow cytometry, PE isotype control on NCI-H322 cells
[9] = target: Nectin-4 on the surface of tumour cell lines (UniProt Q96NY8); test: flow cytometry, PE isotype control on NCI-H358 cells
[10] = target: Nectin-4 on the surface of tumour cell lines (UniProt Q96NY8); test: flow cytometry, PE isotype control on NCI-H292 cells
[11] = target: Nectin-4 on the surface of tumour cell lines (UniProt Q96NY8); test: flow cytometry, PE isotype control on T-47D cells
[12] = target: Nectin-4 on the surface of tumour cell lines (UniProt Q96NY8); test: flow cytometry, PE isotype control on HT1376 cells
[13] = target: Nectin-4 on the surface of tumour cell lines (UniProt Q96NY8); test: flow cytometry, PE isotype control on NCI-H292 cells; remark: listed apart in the source
[14] = target: Nectin-4 on the surface of tumour cell lines (UniProt Q96NY8); test: flow cytometry, PE isotype control on HCT-116 cells
[15] = target: Nectin-4 on the surface of tumour cell lines (UniProt Q96NY8); test: flow cytometry, PE isotype control on NCI-526 cells
[16] = target: Nectin-4 on the surface of tumour cell lines (UniProt Q96NY8); test: flow cytometry, PE antibody staining of HT1080 cells
[17] = target: Nectin-4 on the surface of tumour cell lines (UniProt Q96NY8); test: flow cytometry, PE antibody staining of NCI-H292 cells
[18] = target: Nectin-4 on the surface of tumour cell lines (UniProt Q96NY8); test: flow cytometry, PE antibody staining of HCT-116 cells
[19] = target: Nectin-4 on the surface of tumour cell lines (UniProt Q96NY8); test: flow cytometry, PE antibody staining of NCI-526 cells
[20] = target: Nectin-4 on the surface of tumour cell lines (UniProt Q96NY8); test: flow cytometry, PE antibody staining of HT-29 cells
[21] = target: Nectin-4 on the surface of tumour cell lines (UniProt Q96NY8); test: flow cytometry, PE antibody staining of NCI-H292 cells; remark: listed apart in the source
[22] = target: Nectin-4 on the surface of tumour cell lines (UniProt Q96NY8); test: flow cytometry, PE antibody staining of NCI-H358 cells
[23] = target: Nectin-4 on the surface of tumour cell lines (UniProt Q96NY8); test: flow cytometry, PE antibody staining of MDA-MB-468 cells
[24] = target: Nectin-4 on the surface of tumour cell lines (UniProt Q96NY8); test: flow cytometry, PE antibody staining of Panc02.13 cells
[25] = target: Nectin-4 on the surface of tumour cell lines (UniProt Q96NY8); test: flow cytometry, PE antibody staining of NCI-H322 cells
[26] = target: Nectin-4 on the surface of tumour cell lines (UniProt Q96NY8); test: flow cytometry, PE antibody staining of T-47D cells
[27] = target: Nectin-4 on the surface of tumour cell lines (UniProt Q96NY8); test: flow cytometry, PE antibody staining of HT1376 cells
[28] = target: Nectin-4 on the surface of tumour cell lines (UniProt Q96NY8); test: flow cytometry, PE antibody staining of A549 cells
[29] = target: Nectin-4 on the surface of tumour cell lines (UniProt Q96NY8); test: flow cytometry, PE antibody staining of NCI-H526 cells
[30] = target: Nectin-4 on the surface of tumour cell lines (UniProt Q96NY8); test: flow cytometry, PE antibody staining of MDA-MB-468 cells; remark: listed apart in the source
[31] = target: T1, human Nectin-4 (human), Q96NY8; test: FP competition, tracer SEQ ID NO 217; conditions: remark: other sources report otherwise
T1 chain: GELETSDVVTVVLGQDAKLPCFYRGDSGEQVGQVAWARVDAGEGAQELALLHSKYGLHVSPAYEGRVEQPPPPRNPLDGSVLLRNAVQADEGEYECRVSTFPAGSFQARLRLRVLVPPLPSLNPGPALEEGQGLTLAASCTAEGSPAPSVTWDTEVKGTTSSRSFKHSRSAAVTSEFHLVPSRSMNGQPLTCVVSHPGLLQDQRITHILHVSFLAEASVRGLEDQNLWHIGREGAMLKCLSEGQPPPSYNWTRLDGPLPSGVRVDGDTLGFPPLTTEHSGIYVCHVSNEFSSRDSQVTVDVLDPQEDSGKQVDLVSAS

[32] = target: T2, human Nectin-4 (human, UniProt Q96NY8 32-349); test: FP direct binding
T2 construct: a Gly32-Ser349 FLAG construct is described only under the SPR assay; also called PVRL4
T2 sequence (looked up): T1 chain
Procedure: Affinity of the peptides of the invention for human Nectin-4 (Ki) was determined using a fluorescence polarisation assay, in accordance with the methods disclosed in WO 2016/067035. […] Measurements were conducted on a BMG PHERAstar FS equipped with an “FP 485 520 520” optic module which excites at 485 nm and detects parallel and perpendicular emission at 520 nm. The PHERAstar FS was set at 25° C. with 200 flashes per well and a positioning delay of 0.1 second, with each well measured at 5 to 10 minute intervals for 60 minutes. […] Data was analysed using Systat Sigmaplot version 12.0. mP values were fit to a user defined quadratic equation to generate a Kd value: f=ymin+(ymax−ymin)/Lig*((x+Lig+Kd)/2-sqrt((((x+Lig+Kd)/2)\hat{ }2)-(Lig*x))).

[33] = target: T3, Nectin-4 on MDA-MB-468 cells (human, UniProt Q96NY8 32-510); test: column 'Historical Kd (nM)' of the HCS table; method of the historical value not stated
T3 construct: whole, on cells; also called PVRL4; PVRL-4
T3 sequence (looked up): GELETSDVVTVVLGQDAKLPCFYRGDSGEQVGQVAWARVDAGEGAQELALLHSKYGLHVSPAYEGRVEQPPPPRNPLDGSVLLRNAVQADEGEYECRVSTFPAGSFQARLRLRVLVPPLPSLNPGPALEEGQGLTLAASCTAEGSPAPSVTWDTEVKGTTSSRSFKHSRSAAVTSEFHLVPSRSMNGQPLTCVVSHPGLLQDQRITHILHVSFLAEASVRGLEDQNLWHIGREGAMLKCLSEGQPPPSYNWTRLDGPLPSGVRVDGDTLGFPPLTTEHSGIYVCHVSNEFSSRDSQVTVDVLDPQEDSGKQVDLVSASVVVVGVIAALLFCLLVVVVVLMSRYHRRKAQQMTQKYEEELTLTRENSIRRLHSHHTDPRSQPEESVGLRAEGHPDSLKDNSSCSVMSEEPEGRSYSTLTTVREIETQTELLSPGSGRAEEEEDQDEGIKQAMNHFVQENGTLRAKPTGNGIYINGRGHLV

[34] = target: T3, Nectin-4 on MDA-MB-468 cells; test: HCS assay on MDA-MB-468 cells, bound agent detected with fluorescent antibody to MMAE
Procedure: HCS assay was used in Nectin-4 BDC binding study. Cells were incubated with test agent and then washed. Detection was by a fluorescent antibody to MMAE.

For “PE isotype control IgG2b (R&D, catalog IC0041P) (antibody)”, the MFI-Isotype [1] was 20.5, the MFI-Isotype [2] was 20.5 and the MFI-Isotype [3] was 134. The MFI-Isotype [4] was 28.9, the MFI-Isotype [5] was 104 and the MFI-Isotype [6] was 36.2. It also gave an MFI-Isotype [7] of 184, an MFI-Isotype [8] of 145 and an MFI-Isotype [9] of 26.5. The MFI-Isotype [10] was 180, the MFI-Isotype [11] was 132 and the MFI-Isotype [12] was 36.2. It also gave an MFI-Isotype [13] of 22.9, an MFI-Isotype [14] of 14.5 and an MFI-Isotype [15] of 8.33.

“PE anti-Nectin-4 antibody (R&D, catalog FAB2659P)” showed an MFI-Panel [16] of 134, a Nectin-4 (percent positive cells) [16] of 1.53% and an MFI-Panel [17] of 729. The Nectin-4 (percent positive cells) [17] was 97.9%, the MFI-Panel [18] was 15.6 and the Nectin-4 (percent positive cells) [18] was 1.85%. The MFI-Panel [19] was 12.1, the Nectin-4 (percent positive cells) [19] was 1.22% and the MFI-Panel [20] was 88.3. For the same molecule, the Nectin-4 (percent positive cells) [20] was 40%, the MFI-Panel [21] was 149 and the Nectin-4 (percent positive cells) [21] was 71.1%. The MFI-Panel [22] was 361, the Nectin-4 (percent positive cells) [22] was 90.1% and the MFI-Panel [23] was 460. For the same molecule, the Nectin-4 (percent positive cells) [23] was 97.1%, the MFI-Panel [24] was 128 and the Nectin-4 (percent positive cells) [24] was 51.9%. The MFI-Panel [25] was 1660, the Nectin-4 (percent positive cells) [25] was 99.1% and the MFI-Panel [26] was 1810. It also gave a Nectin-4 (percent positive cells) [26] of 99%, an MFI-Panel [27] of 803 and a Nectin-4 (percent positive cells) [27] of 92.4%. The MFI-Panel [28] was 21.6, the Nectin-4 (percent positive cells) [28] was 1.07% and the MFI-Panel [29] was 91.3. It also gave a Nectin-4 (percent positive cells) [29] of 0.21%, an MFI-Panel [30] of 2320 and a Nectin-4 (percent positive cells) [30] of 99%.

B1: BCY7424 (peptide)
peptide: ACPFGCMKNWAWPIWCTNK
modifications: linker 2-6-16 via TATA
In the case of B1, the Ki [31] is reported as 562 nM.

B2: ACPFGCHTDWSWPIWCA-Sar6-K(Fl) (SEQ ID NO: 217) (peptide)
peptide: ACPFGCHTDWSWPIWCA[Sar][Sar][Sar][Sar][Sar][Sar]-{K(Fl)}
modifications: linker 2-6-16 via TATA
notes: also called fluorescent peptide; tracer
B2 was tested, and the Kd [32] was 5 nM.

B3: BCY8245 (MMAE-PABC-Cit-Val-Glutaryl-BCY8234) (peptide)
peptide: {MMAE-PABC′-Cit-Val-Glutaryl-βAla}-[Sar][Sar][Sar][Sar][Sar][Sar][Sar][Sar][Sar][Sar]CP[1Nal][dD]CM[hArg]DWSTP[Hyp]WC
modifications: linker 11-15-25 via TATA
notes: also called BT8009
B3 gave a Kd [33] of 5.18 nM and a Kd [34] of 3.52 nM.

Reference: patent US20210269480A1 (published 2021)
